The data set concerns the target T1, EhCFIm25 wild type (Entamoeba histolytica, UniProt C4M2T1 1-255).
T1 sequence: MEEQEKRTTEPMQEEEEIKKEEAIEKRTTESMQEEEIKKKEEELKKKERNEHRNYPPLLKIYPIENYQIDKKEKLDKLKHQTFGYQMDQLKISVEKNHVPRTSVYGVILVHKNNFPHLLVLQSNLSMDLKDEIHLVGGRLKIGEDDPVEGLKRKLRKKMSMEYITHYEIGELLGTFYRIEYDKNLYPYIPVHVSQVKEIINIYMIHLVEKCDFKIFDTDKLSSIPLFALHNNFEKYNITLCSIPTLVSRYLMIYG
The data set can be described thus: EMSA; REMSA: RNA probe (100 ng/ul) with 20 ug EhCFIm25 or 50 ug extract, room temperature 20 min, 10% non-denaturing PAGE, LightShift Chemiluminescent RNA EMSA Kit; buffer, salt and pH not stated. The settings on record: protein: recombinant, tags: 6xHis (pRSET vector), chain copies: 2.

For the molecule AAUAAUACGACUCACUAUAGACGAAAUGGUUGUCAACGACGAUUA (ssRNA) [GUUG-probe], the binding result (label: biotin as probe) was “binds”.
As to AAUAAUACGACUCACUAUAGACGAAAUGCAACUCAACGACGAUUA (ssRNA) [CAAC-probe], the binding result (label: biotin) was “no binding”.

B1: Ehthio-3'UTR (ssRNA)
RNA: AAGGGUAGGAAAAAUUGAAACAUUAAAAGAUUUUCCUUCUUUUAAAGACAGAGUAAAAGAACCAUAUGUUGCUCCAAAAUAUGAAGAAGAAGAACUUUAAAUAAUAACUUUUUCAAGAACAAAAAUUAAUAACAAAUUUAUUUUAUUUGAUUUUACAAUUCUUGUUAUUAUAUGUUGAUAUUUAUUUAAAAUACUCUUUCUUUUAAUUUUUGUUUUUAUUAACAAUAUAUUUUAUAUUAAAUAAAGUUUAAUGAAAAAAAAGUAUUAAAAAGUUGUAAUAAACCUAAUUAAUAAAUGUUU
For B1, the binding result (label: biotin (Biotin RNA Labeling Mix)) is “binds”.

The values are drawn from publication PMC5890266, “Targeting the polyadenylation factor EhCFIm25 with RNA aptamers controls survival in Entamoeba histolytica”.
